Assay results as given in patent publication US7943146B2, “Immunizing compositions comprising HIV-1 proviral constructs with an inactive p6 gag TSG101 UEV binding domain capable of producing budding-defective viral particles that remain tethered to the cell surface” (priority 2001, dated 2011).
Residues, ends and D or L forms follow the SMILES beside them. No end group written: not given here.

How the values were obtained:
HIV = experiment: microbe, parasite or virus in culture; assay type: cell-based, HIV-1; conditions: human PBMCs
Procedure: Fresh human blood was obtained commercially from Interstate Blood Bank, Inc. (Memphis, Tenn.). The lymphotropic clinical isolate HIV-1ROJO was obtained from a pediatric patient attending the AIDS Clinic at the University of Alabama at Birmingham. The laboratory-adapted HIV-1IIIB strain was propagated and tittered in fresh human PBMCs; pre-titered aliquots of HIV-1ROJO and Hiv-1IIIB were removed from the freezer (−80° C.) and thawed rapidly to room temperature in a biological safety cabinet immediately before use. Phytohemagglutinin (PHA-P) was obtained from Sigma (St. Louis, Mo.) and recombinant IL-2 was obtained from Amgen (San Francisco, Calif.).
Fresh human PBMCs were isolated from screened donors, seronegative for HIV and HBV. Leukophoresed blood was diluted 1:1 with Dulbecco's phosphate buffered saline (PBS), layered over 14 mL of Ficoll-Hypaque density gradient in a 50 mL centrifuge tube and then centrifuged for 30 minutes at 600×g. Banded PBMCs were aspirated from the resulting interface and subsequently washed 2× with PBS by low speed centrifugation. After the final wash, cells were enumerated by trypan blue exclusion and re-suspended at 1×10^7 cells/mL in RPMI 1640 supplemented with 15% Fetal Bovine Serum (FBS), 2 mM L-glutamine, 4 μg/mL PHA-P. The cells were allowed to incubate for 48-72 hours at 37° C. After incubation, PBMCs were centrifuged and reset in RPMI 1640 with 15% FBS, 2 mM L-glutamine, 100 U/ml penicillin, 100 μg/mL streptomycin, 10 μg/mL gentamycin, and 20 U/mL recombinant human IL-2. PBMCs were maintained in this medium at a concentration of 1-2×10^6 cells/mL with biweekly medium changes until used in the assay protocol.
For the standard PBMC assay, PHA-P stimulated cells from at least two normal donors were pooled, diluted in fresh medium to a final concentration of 1×10^6 cells/mL, and plated in the interior wells of 96 well round bottom microplate at 50 μL/well (5×10^4 cells/well). Test drug dilutions were prepared at a 2× concentration in microtiter tubes and […] of each concentration was placed in appropriate wells in a standard format. […] Wells with cells and virus alone were used for virus control. Separate plates were prepared identically without virus for drug cytotoxicity studies using an XTT assay system. The PBMC cultures were maintained for seven days following infection, at which time cell-free supernate samples were collected and assayed for reverse transcriptase activity as described below.
A microtiter based reverse transcriptase (RT) reaction was utilized. See Buckheit et al., AIDS Research and Human Retroviruses 7:295-302 (1991). Tritiated thymidine triphosphate (NEN) (TTP) was resuspended in distilled H2O at 5 Ci/ml. Poly rA and oligo dT were prepared as a stock solution which was kept at −20° C. The RT reaction buffer was prepared fresh on a daily basis and consists of 125 μl 1M EGTA, 125 μl dH2O, 110 μl 10% SDS, 50 μl 1M Tris (pH 7.4), 50 μl 1M DTT, and 40 μl 1M MgCL2. These three solutions were mixed together in a ratio of 2 parts TTP, 1 part poly rA:oligo dT, and 1 part reaction buffer. Ten microliters of this reactions mixture was placed at a round bottom microtiter plate and 15 μl of virus containing supernatant was added and mixed. […] Opti-Fluor-O (Packard) was added to each sample and incorporated radioactivity was quantified utilizing a Wallac 1450 MicroBeta Plus liquid scintillation counter.

Tsg101 [1] = target: T1, Tsg101 (Homo sapiens, UniProt Q99816); experiment: Two-hybrid liquid culture β-galactosidase assay; assay type: cell-based; set-up: expressed in transfected cells; conditions: full length Tsg101, liquid culture; for β-galactosidase activity (in words): p6 point mutants
T1 sequence (Q99816 1-390): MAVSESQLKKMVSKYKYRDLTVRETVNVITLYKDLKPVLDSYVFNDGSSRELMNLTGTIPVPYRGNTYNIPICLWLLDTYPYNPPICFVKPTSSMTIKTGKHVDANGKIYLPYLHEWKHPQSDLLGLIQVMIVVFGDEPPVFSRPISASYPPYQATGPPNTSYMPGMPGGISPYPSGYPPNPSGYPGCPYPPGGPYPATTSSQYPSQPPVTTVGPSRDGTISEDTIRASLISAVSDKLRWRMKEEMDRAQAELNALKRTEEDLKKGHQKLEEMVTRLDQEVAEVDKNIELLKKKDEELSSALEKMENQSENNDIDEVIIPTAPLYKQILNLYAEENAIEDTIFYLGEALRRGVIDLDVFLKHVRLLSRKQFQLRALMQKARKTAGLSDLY
Procedure: The interactions between TSG101 and wild-type p6gag (WT) or the p6gag PTAP (SEQ ID NO:1) mutants were further quantitated by performing liquid culture β-galactosidase assays. Cultures were grown overnight in synthetic media (−Leu, −Trp, +glucose) in 96 well plates, normalized for optical density, and lysed by addition of 6× lysis/substrate solution in 6× Z-buffer (60 mM KCl, 6 mM MgSO4, 360 mM Na2HPO4, 240 mM NaH2PO4, 6 mg/ml CPRG, 0.12 U/ml lyticase, 0.075% NP-40). Cultures were incubated for 2 hr at 37° C., clarified by centrifugation, and the optical absorbance of each supernatant was measured (575 nm). Full length Tsg101 bound wild-type p6 in the two-hybrid liquid culture assay, resulting in high levels of β-galactosidase activity (>300-fold over background). […] Each of these point mutations also arrests HIV-1 budding at a late stage (Huang et al. 1995).

Tsg101 [2] = target: T1, Tsg101; experiment: Yeast two-hybrid filter lift assay for β-Gal activity, Tsg101 with p6gag constructs; assay type: cell-based; set-up: expressed in transfected cells; host or cells: Saccharomyces cerevisiae strain Y189; key to Interactions Between Tsg101 and p6gag (β-Gal activity): +: Positive β-Gal activity indicates that the p6gag wild type or mutant protein interacts with Tsg101; conditions: for Interactions Between Tsg101 and p6gag (β-Gal activity): yeast strain Y189, activation domain-Tsg101 plus binding domain-p6gag construct, X-Gal filter lift
From the text: Yeast two-hybrid assays were utilized to determine the effect of amino acid substitution mutations in the PTAP (SEQ ID NO:1) motif of HIV p6gag on the interaction between Tsg101 and p6gag. To prepare a yeast two-hybrid activation domain-Tsg101 construct, a DNA fragment encompassing the full-length coding sequence for Tsg101 according to GenBank Accession No. U82130 was obtained by PCR from a human fetal brain cDNA library and cloned into the EcoRI/Pst1 sites of the activation domain parent plasmid GADpN2 (LEU2, CEN4, ARS1, ADH1p-SV40NLS-GAL4 (768-881)-MCS (multiple cloning site)-PGKlt, AmpR, ColE1_ori).
To prepare the yeast two-hybrid DNA binding domain-HIV1 p6gag construct, a DNA fragment corresponding to the HIV1 p6 peptide derived from the HIV1.NL43 strain GAG protein was obtained by PCR from the NL43 containing plasmid R9Δapa and was cloned into the EcoRI/Sal1 sites of the binding domain parent plasmid pGBT.Q. The sequence of the amplified insert is shown in SEQ ID NO:34.
The following amino acid substitution mutations were introduced by PCR into the HIV1 p6gag sequence in the yeast two-hybrid binding domain-HIV1 p6gag construct described above. The mutations were verified by DNA sequence analysis.
To test the effect of the mutations, yeast cells of the strain Y189 purchased from Clontech (ura3-52 his3*200 ade2-101 trp1-901 leu2-3,112 met gal4 gal80 URA3::GAL1p-lacZ) were co-transformed with the activation domain-Tsg101 construct and one of the binding domain-mutant p6gag constructs or the binding domain-wild type p6gag construct. Filter lift assays for β-Gal activity were conducted by lifting the transformed yeast colonies with filters, lysing the yeast cells by freezing and thawing, and contacting the lysed cells with X-Gal. […] All binding domain constructs were also tested for self-activation of β-Gal activity.

| Molecule | Comments (anti-HIV activity) (HIV) | β-galactosidase activity (in words) (Tsg101 [1]) | further results |
| --- | --- | --- | --- |
| C[C@H](NC(=O)[C@@H](NC(=O)[C@@H]1CCCN1C(=O)[C@H](CCC(=O)O)NC(=O)[C@@H]1CCCN1C(=O)[C@H](CCCNC(=N)N)NC(=O)[C@H](CCCNC(=N)N)NC(=O)[C@H](CCCNC(=N)N)NC(=O)[C@H](CCCNC(=N)N)NC(=O)[C@H](CCCNC(=N)N)NC(=O)[C@H](CCCNC(=N)N)NC(=O)[C@H](CCCNC(=N)N)NC(=O)[C@H](CCCNC(=N)N)NC(=O)[C@@H](N)CCCNC(=N)N)[C@@H](C)O)C(=O)N1CCC[C@H]1C(=O)N[C@@H](CCC(=O)O)C(=O)N[C@@H](CCC(=O)O)C(=O)O [MPI-PEP1, NH2—(R)9-PEPTAPEE-COOH] (H-RRRRRRRRRPEPTAPEE-OH) | Active | – | – |
| CC(C)C[C@H](NC(=O)[C@H](C)NC(=O)[C@@H](NC(=O)[C@@H]1CCCN1C(=O)[C@H](CCC(=O)O)NC(=O)[C@@H]1CCCN1C(=O)[C@H](CCCNC(=N)N)NC(=O)[C@H](CCCNC(=N)N)NC(=O)[C@H](CCCNC(=N)N)NC(=O)[C@H](CCCNC(=N)N)NC(=O)[C@H](CCCNC(=N)N)NC(=O)[C@H](CCCNC(=N)N)NC(=O)[C@H](CCCNC(=N)N)NC(=O)[C@H](CCCNC(=N)N)NC(=O)[C@@H](N)CCCNC(=N)N)[C@@H](C)O)C(=O)N[C@@H](CCC(=O)O)C(=O)N[C@@H](CCC(=O)O)C(=O)O [MPI-PEP2, NH2—(R)9-PEPTALEE-COOH] (H-RRRRRRRRRPEPTALEE-OH) | Inactive | – | – |
| C[C@H](NC(=O)[C@@H](NC(=O)[C@@H]1CCCN1C(=O)[C@H](CCC(=O)O)NC(=O)[C@@H]1CCCN1C(=O)[C@@H](N)CCCNC(=N)N)[C@@H](C)O)C(=O)N1CCC[C@H]1C(N)=O [MPI-PEP3, NH2-RPEPTAP-CO—NH2] (H-RPEPTAP-NH2) | Inactive | – | – |
| p6(A9R): HIV1 p6gag binding domain construct with A9R substitution in the PTAP motif (LQSRPEPTRPPEESFRFGEETTTPSQKQEPIDKELYPLASLRSLFGSDPSSQ; not fully specified) | – | reduced β-galactosidase activity to background levels | – |
| p6(E6G): HIV1 p6gag binding domain construct with E6G substitution outside the PTAP motif (LQSRPGPTAPPEESFRFGEETTTPSQKQEPIDKELYPLASLRSLFGSDPSSQ; not fully specified) | – | – | Tsg101-p6gag interaction (in words) (Tsg101 [2]; summary of Table II): did not result in the elimination of the Tsg101-p6gag interaction; Interactions Between Tsg101 and p6gag (β-Gal activity) (Tsg101 [2]): + |
| p6(P7L): HIV1 p6gag binding domain construct with P7L substitution in the PTAP motif (LQSRPELTAPPEESFRFGEETTTPSQKQEPIDKELYPLASLRSLFGSDPSSQ; not fully specified) | – | reduced β-galactosidase activity to background levels | – |
| p6(P10L): HIV1 p6gag binding domain construct with P10L substitution in the PTAP motif (LQSRPEPTALPEESFRFGEETTTPSQKQEPIDKELYPLASLRSLFGSDPSSQ; not fully specified) | – | reduced β-galactosidase activity to background levels | – |
| p6(wt): wild type HIV1 p6gag (NL43 strain) as yeast two-hybrid DNA binding domain construct | – | – | β-galactosidase activity (Tsg101 [1]; absorbance 575 nm): > 300 fold over background; Interactions Between Tsg101 and p6gag (β-Gal activity) (Tsg101 [2]): + |
